From article PMC3958349
Each block holds one substance with its values, some of them ahead of it.

Assays:
mCherry-GR (wild type) = mCherry-GR (wild type) (UniProt P06537); assay: number and brightness (N&B) analysis; living 3617 cells transiently expressing mCherry, mCherryGRwt, GFP and/or GFP-p65; 300 nM Cort and/or 10 ng/ml TNF-α; nuclear brightness ε in the green and red channels
[1] = target: eGFP-GR (wild-type mouse glucocorticoid receptor with eGFP fused to its N-terminal end) (mouse) (UniProt P06537); assay: number and brightness (N&B) analysis; living GR-null MEF cell lines stably expressing eGFP-GR or its mutants at endogenous levels; 100 nM Dex or 100 nM Cort; nuclear brightness ε
[2] = target: eGFP-GR (wild-type mouse glucocorticoid receptor with eGFP fused to its N-terminal end) (mouse) (UniProt P06537); assay: number and brightness (N&B) analysis; living BHK cells transiently transfected with pEGFP-GR or its mutants; 100 nM (0.1 µM) Dex or 100 nM Cort for at least 1 h; nuclear brightness ε relative to vehicle; ligand washout also tested (Cort withdrawal reduced the dimers, Dex washout did not)
[3] = target: eGFP-GR (wild-type mouse glucocorticoid receptor with eGFP fused to its N-terminal end) (mouse) (UniProt P06537); assay: number and brightness (N&B) analysis; living BHK cells transiently transfected with pEGFP-GR or pEGFP-GR^A465T; 10 µM 21OH-6,19OP; nuclear brightness ε
eGFP-GR^A465T (mouse) [4] = target: eGFP-GR^A465T (mouse) (UniProt P06537); assay: number and brightness (N&B) analysis; living 3617 cells (tetracycline to inhibit the stable GFP-GR) transiently transfected with pEGFP-GR or its mutants; 100 nM Dex or 100 nM Cort for at least 30 min; nuclear brightness ε
eGFP-GR^A465T (mouse) [5] = target: eGFP-GR^A465T (mouse) (UniProt P06537); assay: number and brightness (N&B) analysis; living GR-null MEF cell lines stably expressing eGFP-GR or its mutants at endogenous levels; 100 nM Dex or 100 nM Cort; nuclear brightness ε

Sequence of mCherry-GR (wild type) (P06537 whole entry, the tested form may be a part): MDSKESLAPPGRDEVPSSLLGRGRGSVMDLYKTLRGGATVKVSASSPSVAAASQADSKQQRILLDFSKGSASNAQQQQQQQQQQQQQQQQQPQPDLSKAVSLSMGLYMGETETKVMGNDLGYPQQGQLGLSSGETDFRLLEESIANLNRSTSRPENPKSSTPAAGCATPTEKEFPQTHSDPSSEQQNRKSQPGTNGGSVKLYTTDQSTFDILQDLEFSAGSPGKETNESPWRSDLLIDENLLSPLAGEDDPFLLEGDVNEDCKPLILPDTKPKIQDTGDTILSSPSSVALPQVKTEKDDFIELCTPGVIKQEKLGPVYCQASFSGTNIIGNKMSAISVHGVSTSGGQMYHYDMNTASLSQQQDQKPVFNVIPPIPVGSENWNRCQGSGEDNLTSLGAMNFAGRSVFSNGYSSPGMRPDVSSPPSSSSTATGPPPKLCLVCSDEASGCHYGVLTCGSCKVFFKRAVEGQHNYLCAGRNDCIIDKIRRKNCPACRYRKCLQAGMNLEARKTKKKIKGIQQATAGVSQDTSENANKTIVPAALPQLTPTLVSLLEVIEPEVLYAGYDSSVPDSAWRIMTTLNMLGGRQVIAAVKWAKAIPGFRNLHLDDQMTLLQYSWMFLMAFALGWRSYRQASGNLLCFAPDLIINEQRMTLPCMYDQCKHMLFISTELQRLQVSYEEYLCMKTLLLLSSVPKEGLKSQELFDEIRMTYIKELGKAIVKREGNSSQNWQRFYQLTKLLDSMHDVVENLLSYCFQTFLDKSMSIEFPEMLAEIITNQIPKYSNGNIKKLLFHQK

stoichiometry N (mCherry-GR (wild type)): 2
Substance: mCherry-GR (wild type) (from UniProt P06537 1-792) (receptor)

stoichiometry N [1]: 2
stoichiometry N [2]: 2
stoichiometry N [3]: 2
Substance: eGFP-GR (wild-type mouse glucocorticoid receptor with eGFP fused to its N-terminal end) (from UniProt P06537 1-792)

stoichiometry N (eGFP-GR^A465T (mouse) [4]): 2
stoichiometry N (eGFP-GR^A465T (mouse) [5]): 2
Substance: eGFP-GR^A465T (from UniProt P06537 1-792) (receptor)
